{
  "source": "paper PMC8928218",
  "about": "(Frontiers in Cell and Developmental Biology, 2022)",
  "molecular_target": "Pyrene-labeled G-actin (rabbit, UniProt P68135 1-377, pyrene label)",
  "experiment": "cell-based or functional assay",
  "data": [
    {"binder": "human hexameric SEPT2/6/7 complex (complex) chain 1: MSKQQPTQFINPETPGYVGFANLPNQVHRKSVKKGFEFTLMVVGESGLGKSTLINSLFLTDLYPERVIPGAAEKIERTVQIEASTVEIEERGVKLRLTVVDTPGYGDAINCRDCFKTIISYIDEQFERYLHDESGLNRRHIIDNRVHCCFYFISPFGHGLKPLDVAFMKAIHNKVNIVPVIAKADTLTLKERERLKKRILDEIEEHNIKIYHLPDAESDEDEDFKEQTRLLKASIPFSVVGSNQLIEAKGKKVRGRLYPWGVVEVENPEHNDFLKLRTMLITHMQDLQEVTQDLHYENFRSERLKRGGRKVENEDMNKDQILLEKEAELRRMQEMIARMQAQMQMQMQGGDGDGGALGHHV chain 2: MAATDIARQVGEGCRTVPLAGHVGFDSLPDQLVNKSVSQGFCFNILCVGETGLGKSTLMDTLFNTKFEGEPATHTQPGVQLQSNTYDLQESNVRLKLTIVSTVGFGDQINKEDSYKPIVEFIDAQFEAYLQEELKIRRVLHTYHDSRIHVCLYFIAPTGHSLKSLDLVTMKKLDSKVNIIPIIAKADAISKSELTKFKIKITSELVSNGVQIYQFPTDDESVAEINGTMNAHLPFAVIGSTEELKIGNKMMRARQYPWGTVQVENEAHCDFVKLREMLIRVNMEDLREQTHTRHYELYRRCKLEEMGFKDTDPDSKPFSLQETYEAKRNEFLGELQKKEEEMRQMFVQRVKEKEAELKEAEKELHEKFDRLKKLHQDEKKKLEDKKKSLDDEVNAFKQRKTAAELLQSQGSQAGGSQTLKRDKEKKNNPWLCTE chain 3: MSVSARSAAAEERSVNSSTMVAQQKNLEGYVGFANLPNQVYRKSVKRGFEFTLMVVGESGLGKSTLINSLFLTDLYSPEYPGPSHRIKKTVQVEQSKVLIKEGGVQLLLTIVDTPGFGDAVDNSNCWQPVIDYIDSKFEDYLNAESRVNRRQMPDNRVQCCLYFIAPSGHGLKPLDIEFMKRLHEKVNIIPLIAKADTLTPEECQQFKKQIMKEIQEHKIKIYEFPETDDEEENKLVKKIKDRLPLAVVGSNTIIEVNGKRVRGRQYPWGVAEVENGEHCDFTILRNMLIRTHMQDLKDVTNNVHYENYRSRKLAAVTYNGVDNNKNKGQLTKSPLAQMEEERREHVAKMKKMEMEMEQVFEMKVKEKVQKLKDSEAELQRRHEQMKKNLEAQHKELEEKRRQFEDEKANWEAQQRILEQQNSSRTLEKNKKKGKIF", "values": [
      {"measurement": "fold decrease in actin monomer turnover in the elongation phase (tau, the inverse value of the rate constant) in the pyrene actin polymerization assay, 2 µM actin, relative to actin alone", "result": "~1.4", "unit": "fold"}
    ]}
  ]
}
